The record followed here is a protein production outcome set (Wang et al. 2014).

The series can be described thus: label from the status in PepcDB records.

With “MQTASRAHADSRHGLFLILFSAMLWGTVGITTKALYGLADTTPLSIGFFRLALAVPVLVAACRLATGPAMFRVARRDLGTMIVVGAMTALYQVCYFAAIRQIGVAAATLVTLCTAPVIVALLSAILTGERPSGRVLLSLACALAGTALLVGLRPLAGEGGNIPLGIAQALGSAFSYASVTVASRTLAGRYHPLQPVAIGFAAGALFLLPTALADGLVLTYPAAGWVLLLYLGVVPTALAYALFLAGMRTTTATAASICTLLEPLVSTVLAWLIFGERLGPLGAVGAVLLFGAIGLLARPVRRRQSSAA”, the protein production result is listed as “failed”.

“MQTFVLATNSETVSQTLCSYLEGVLDLEDSVYAVNSQPGGDRTPPDAVADGKAALEVVSDRLGDQVSVETYQIIRGNSPADDIFDIAAEVDADELVIGVRKRSQTDRLIFGSVAQDIMRQSDYPMRVVPRD”: the protein production result is recorded as “failed”.

On to “MQTIIRVEKLAKTFNQHQALHAVDLNIHHGEMVALLGPSGSGKSTLLRHLSGLITGDKSVGSHIELLGRTVQREGRLARDIRKSRAHTGYIFQQFNLVNRLSVLENVLIGALGSTPFWRTCFSWFTGEQKQRALQALTRVGMVHFAHQRVSTLSGGQQQRVAIARALMQQAKVILADEPIASLDPESARIVMDTLRDINQNDGITVVVTLHQVDYALRYCERIVALRQGHVFYDGSSQQFDNERFDHLYRSINRVEENAKAA”, for which the protein production result is given as “failed”.

With “MQTLLPLLARGAVLSPFKRPRPDAAFPHSRLVLSGVRIDLARLAAYERACGFPTGADALPLTYPHVLGFPLAMRIMASRAFPLPLLGLVHTSIEVTRLREPAATGEYELAVHVEGLTPHRRGTEATVVTGARVDGSLVWESRSTYLARHRRATDARTPADARTATDARTPADARTATDARTAADARTAAPVPSAEPKPLPVVAEWRLAADVGRRYAAVSGDRNPIHLHPLTARLFGFPRAIAHGMWTVARCLAEQPADASVQLRAEFKSPVLLPGTVTYAADGGRFELRGGERVHLTGELREYRANSA”, the protein production result is on record as “failed”.

As for “MQTQFQFINDCLIENQPLWRFEPFQSSIQPSLPWQETHPQLCQWLESLSPSQIETLKADPDLALDEISVFLPDLPSLLRHTQLESMALDGLALERGLDSGIPGRKLEQITAMGEAAIQSHQGEEWLEWCSGKGYLGRILTTQTNQPVTSFEYQQALCDSGQQAANEHHWKMTFIQGDAFDPQTKAVFKPTQHAVALHACGDLHVRLMEYGSEAGIAAMTISPCCYHLIQSETYQALSQSVRASELILSKHELRIPLQQTVTGGERVRRHRQQEMVFRLGFDLLTREILGVDEYQPVPSIRKSQLSDGFEALCLWVAKEKGIEINQAIDFAEFEKRAIKRFWHMERMSLVQLVFQRPLEIWLALDKVLYLEERGYRVRLAEFCPKSVTPRNILICAYKN”, the protein production result is “failed”.

Turning to “MQTQVLFEHPLNEKMRTWLRIEFLIQQLTVNLPIVDHAGALHFFRNVSELLDVFERGEVRTELLKELDRQQRKLQTWIGVPGVDQSRIEALIQQLKAAGSVLISAPRIGQFLREDRLIALVRQRLSIPGGCCSFDLPTLHIWLHLPQAQRDCQVETWIASLNPLTQALTMVLDLIRQSAPFRKQTSLNGFYQDNGGDADLLRLNLSLDSQLYPQISGHKSRFAIRFMPLDTENGQVPERLDFELACC”, the protein production result was “not failed”.

On to “MQTWQQLYSPLGSLGLSALAAVIPIVFFFLALAVFRLKGHVAGSITLALSILVAIFAFQMPADMALAAAGYGFAYGLWPIAWIIVAAVFLYKLTVKSGQFEIIRSSVLSITDDQRLQVLLIGFCFGAFLEGAAGFGAPVAITAALLVGLGFNPLYAAGLCLIANTAPVAFGALGIPIIVAGQVTGIDAFKIGAMTGRQLPLLSLFVPFWLVFMMDGMRGVKETWPAALVAGLSFAVTQYFTSNFIGPELPDITSALASLISLTLFLKIWQPKRTAGAQIAGATSSAAITASAGGFGQPRQTQASPYSLGQIFKAWSPFLILTVLVTIWTLKPFKAMFAAGGSMYGWVFNFAIPHLDQLVIKMAPIVTTPTAIPAVFKLDPISATGTAIFFSALISMLLLKIDFKTGLTTLKETFYELRWPILSIGMVLAFAFVTNYSGMSSTMALVLAATGAAFPFFSPFLGWLGVFLTGSDTSSNALFSSLQATTAHQIGVNDTLLVAANTSGGVTGKMISPQSIAVACAATGLVGKESDLFRFTLKHSLFFATIVGLITLAQAYWFTGMLVH”, for which the protein production entry is “failed”.

Take “MQVEREENRKEVYEMKKETTGSKKVENGMEQEILNGQQPHWEKVFSNTCSRFGDEPSYPARKAAAIFEKEGKKKILELGGGQGRDTCFFASRGFSVHSLDYTESGTKAMKEKAEESGFGKYVTALRHDARNPLPFEAETFDACYSHMLYCMALTTDELEFLCKEIKRVLKPGGINIYTARHTGDAHYGTGTHRGEDMYEIAGGFIVHFFSREKVENLAKEYGSFELEEFEEGELPRKLYMVTMRK”: the protein production result was “failed”.

With “MQVPKVTLNNGVEMPILGYGVFQIPPEKTEECVYEAIKVGYRLIDTAASYMNEEGVGRAIKRAIDEGIVRREELFVTTKLWVSDVGYESTKKAFEKSLKKLQLEYIDLYLIHQPFGDVHCAWKAMEEMYKDGLVRAIGVSNFYPDRLMDLMVHHEIVPAVNQIEIHPFYQRQEEIEFMRNYNIQPEAWGPFAEGRKNIFQNGVLRSIAEKYGKTVAQVILRWLTQKGIVAIPKTVRRERMKENISIFDFELTQEDMEKIATLDEGQSAFFSHRDPEVVKWICSLKR”, the protein production entry is reported as “not failed”.

Take “MQVQELVGIVPWNFIATICNLFIQVYLIKRFLFKPVNEMLEKRRAKADAEIQDAVKAKEEAEVMKAEYEKNMQEAKEKANDIVLTAQKTAAVQSEEMLKEASSQVTAMKEKAEKDIAQERRKAVNEIKGEIGGMAVEIAGKVIEREINEEDHTKLINDFIENVGEAS”: the protein production result was “not failed”.

In the case of “MQVRAVFFARLRREVGLEELTLDVPDGADVRAVAEHLEQERGVSLRGCMVAVNETYASPEHLLREGDEVAFLPPVAGGAPEDEADADTHCRVTADPLSLSEADAFLVKPEYGAQAYFMGTVRSPNQGQVVEYIDYEAFAPMAEKVMREAAALARERHGELRVWIEHRTGRLTPAVASIVIGVASPHRRPALEACDFLIEHLKIELPIWKHEADGRGEHWVKGTTGHDTL”, the protein production result is “failed”.

As to “MQWPPPWRRSPLVSATPPPGPTRGLLCPRRVSEAGDSSTEGARTGHSHYVTPAESAMEGRSQPLPSLRPASPTNAPAHGRGSDCTAKEPPLANVCRQNYGAAQDPVELAGRRSASHVTGSSLGKAEVACGRRWRWAELLADTSWSPAGRATEMKVKMLSRNPDNYVRETKLDLQRVPRNYDPALHPFEVPREYVRALNATKLERVFAKPFLASLDGHRDGVNCLAKHPEKLATVLSGACDGEVRIWNLTQRNCIRTIQAHEGFVRGICTRFCGTSFFTVGDDKTVKQWKMDGPGYGDEEEPLHTILGKTVYTGIDHHWKEAVFATCGQQVDIWDEQRTNPICSMTWGFDSISSVKFNPIETFLLGSCASDRNIVLYDMRQATPLKKVILDMRTNTICWNPMEAFIFTAANEDYNLYTFDMRALDTPVMVHMDHVSAVLDVDYSPTGKEFVSASFDKSIRIFPVDKSRSREVYHTKRMQHVICVKWTSDSKYIMCGSDEMNIRLWKANASEKLGVLTSREKAAKDYNQKLKEKFQHYPHIKRIARHRHLPKSIYSQIQEQRIMKEARRRKEVNRIKHSKPGSVPLVSEKKKHVVAVVK”, the protein production entry is “failed”.

In the case of “MQYSSFGEKFNRYSGITQLMDDLNDGLRTPGAIMLGGGNPAAIPAMLDYFHNTSAEMLADGSLLNAMTNYDGPQGKDVFVKSLATLLRETYGWNISEKNITLTNGSQSGFFYLFNLFAGKQPDGAHKKILLPLAPEYIGYGDAGIDDDIFVSYRPEIELLDQGLFKYHVDFSELKVDESVAAICVSRPTNPTGNVLTEEEIHKLDQLARDNGVPLIIDNAYGVPFPNIIFEDIEPFWNDNTILCMSLSKLGLPGLRCGIVIANEAVTQALTNMNGIISLAPGSMGPALVQRMIEKGDLLRLSEQVIKPFYRQKAQHAVELLQSAITDPRFRIHKPEGAIFLWLWFDELPITTMELYQRLKARGVLIVPGEYFFIGQPQEWPHAHECLRMNYVQNEQAMEQGIAIIAEEVQKAYQQANV”, the protein production result is given as “failed”.

Consider “MRAGSGQCTGAAMDRLTEMEAFAMVVDQGGFTDAARKMGISKSAVSKHVSALEARLGARLLNRTTRRVSPTEIGLAYYDRARRVLTDAGEADALVTSMQTAPSGHLRLSVATDFGVALLAPILAEFLLDYPDITVTMVLNNRSVELISEGFDMAIRVGDLEDSSLRARKLTETTRRMIASPGYLQRHGRPMKIDDLTDHRLLYHSTQAHGNVWRLLSPSGEPRQVRAPGFLTVNDGHSLLKAAVSGLGIAHLPEFLFAEAMRAGLVEEVLPDLPVETLGIHAIYPAGRFTQPKVRAFIDFLVRRFLEKGPIGN”, for which the protein production entry was “failed”.

Consider “MRAIAIVLARSSSKRIKNKNIIDFFNKPMLAYPIEVALNSKLFEKVFISSDSMEYVNLAKNYGASFLNLRPKILADDRATTLEVMAYHMEELELKDEDIACCLYGASALLQEKHLKNAFETLNKNQNTDYVFTCSPFSASPYRSFSLENGVQMAFKEHSNTRTQDLKTLYHDAGLLYMGKAQAFKEMRPIFSQNSIALELSPLEVQDIAHFRRFRISQAQIQPFEKRMPVKILCDCFLTSGLGHVRRCEKILSFIEKLGVEASLYLHKQNNISAFLEGVGGNDFLITDSYCLNSKDFYLLKEKAKSLMVIEDTEHAKGFYPKNTKILNFTLNALKHYHHLSKDYQYYLGVGFYPVDARFIYDRPINTENKEVLITLGGSEQKTLKEIVKILENKNVNLHIISPYTPKNPPKNTHYYSPLNPLEFSSLMKSCACAISAAGQTLYELALSQTPSLILPIASNQIIQSKEFESLGIFKQTSLKTLAKDFENLQIQKNQAWAKNLVFGDKLEGALREFLEI”, for which the protein production entry is “failed”.

Take “MRALALICVVWVCWRESCARHGTEDSSESGLRYAYTLVVDGTANTRRCFGTGHVDGEAFVGYSNNKTHGIGRWVNASHVEEENKEFVRQCKELQAELDKMQNNSKVIGVKTVQLDVGCTSKIEKHYAYDGNETEDDTATSASERDRDCQKKLTEYRKLVLASAVSPQLEVERRSSGREGGMRLRCFARDYYPADLEIRWWKDDGGGGALPQTSKQHHDPLPSGNGLYQKHIDVYVDGGLEHVYSCRVKGIATGLELQIVRWKGYARGAGNSVVLLALFIPASVMAAVVVGSVLIRKKSKEQRKTRRRFGRRSGHEPKRPSYQVKRRAEPPCDLPMTIWFRGDNVMSTQVEACPAYAVTMSARELSDAWSNGDGPIVTVPDPSI”: the protein production entry is “not failed”.

Turning to “MRAPLSTYRRPQRTDFVTPTGGPFFAKQDKALNTIDLKMAHDLKLRGYRVKVAVVDEGVRSDHPLLNVEKKYGGDYMADGTRTYPDPKRQGRHGTSVALVLAGQDTDTYRGGVAPNADLYSANIGTRAGHVSDEAAFHAWNDLLGHGIKIFNNSFATEGPEGEQRVKEDRNEYHSAANKQNTYIGRLDRLVRDGALLIFAAGNGRPSGRAYSEVGSVGRTPRVEPHLQRGLIVVTAVDENGRLETWANRCGQAQQWCLAAPSTAYLPGLDKDNPDSIHVEQGTSLSAPLVTGAAVLVQDRFRWMDNDNLRTTLLTTAQDKGPYGVDPQYGWGVLDVGRAVQGPAQFAFGDFVARVTDTSTFGLEHHHHHH”, the protein production entry is reported as “failed”.
